From the supplement of paper PMC10126150
± gives the standard deviation of the averaged measurements.

System: ATP
Assay: switch fluorescence ratio, 500 uM ATP over buffer (Cy3 cluster intensity, sum of 5 cycles each) (fold (ratio)); higher = stronger signal-on switching upon ATP binding; sequences stand for … in TCGTCGGCAGCGTCAGATGTGTATAAGAGACAGTTTTTTTTTTTTTTTTTTTTTTTTT…TC
Conditions: aptamer strand: ATP DNA aptamer (quencher-CACCTGGGGGAGTATTGCGGAGGAAGG + anchor), 100 nM annealed; ATP concentration: 500 uM
In short: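 Imaging in selection buffer was followed by imaging after 15 min with 500 uM ATP at 22 °C, for Cy3-labelled switching-strand clusters annealed to 100 nM quencher-labelled ATP aptamer on a modified Illumina MiSeq flow-cell. Five of these buffer/ATP cycles ran, separated by NaOH stripping and re-annealing. The fluorescence ratio per cluster is summed target-cycle over summed buffer-cycle Cy3 intensity, averaged per switch-domain sequence; clusters outside 100-1000 RFU were removed.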
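Also: ATP exposure 15 min at 22 °C before imaging.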

TATATGTTTT
switch fluorescence ratio: 0.968 ± 0.013

TATATTACTG
switch fluorescence ratio: 1.09 ± 0.12

TATATTCGCT
switch fluorescence ratio: 0.988 ± 0.012

TATATTTAGC
switch fluorescence ratio: 1 ± 0.033

TATATTTG
switch fluorescence ratio: 0.9883 ± 0.0065

TATATTTGTC
switch fluorescence ratio: 1.04 ± 0.032

TATCAAAAAT
switch fluorescence ratio: 0.994 ± 0.013

TATCAACCTT
switch fluorescence ratio: 1.25 ± 0.34

TATCACAGTT
switch fluorescence ratio: 1.01 ± 0.035

TATCACTTTA
switch fluorescence ratio: 1.088 ± 0.0043

TATCAGAGGA
switch fluorescence ratio: 1.04 ± 0.013

TATCAGGTCC
switch fluorescence ratio: 0.9982 ± 0.0069

TATCAGTTCG
switch fluorescence ratio: 0.9961 ± 0.006

TATCATCGGT
switch fluorescence ratio: 1 ± 0.047

TATCATGCCG
switch fluorescence ratio: 0.967 ± 0.037

TATCATGTCG
switch fluorescence ratio: 0.986 ± 0.031

TATCCAATCA
switch fluorescence ratio: 0.9719 ± 0.0081

TATCCATGGA
switch fluorescence ratio: 1.01 ± 0.026

TATCCCATAC
switch fluorescence ratio: 1.49 ± 0.073

TATCCCGGTG
switch fluorescence ratio: 1.82 ± 0.043

TATCCTGTTT
switch fluorescence ratio: 1.04 ± 0.011

TATCGACGTT
switch fluorescence ratio: 0.97 ± 0.038

TATCGCCGAA
switch fluorescence ratio: 0.997 ± 0.037

TATCGCGTTC
switch fluorescence ratio: 1.09 ± 0.078

TATCGGCAAT
switch fluorescence ratio: 4.42 ± 0.76

TATCGGGGGA
switch fluorescence ratio: 0.985 ± 0.061

TATCGGGGT
switch fluorescence ratio: 0.989 ± 0.013

TATCGTAGGG
switch fluorescence ratio: 1 ± 0.022

TATCGTCTAC
switch fluorescence ratio: 1.015 ± 0.0033

TATCGTGAGT
switch fluorescence ratio: 0.9822 ± 0.0071

TATCTCTACT
switch fluorescence ratio: 1.03 ± 0.017

TATCTGTCAA
switch fluorescence ratio: 1.11 ± 0.032

TATCTGTGCC
switch fluorescence ratio: 0.96 ± 0.054

TATCTGTTTC
switch fluorescence ratio: 1.01 ± 0.016

TATCTTTGCG
switch fluorescence ratio: 0.965 ± 0.01

TATGAAAGGC
switch fluorescence ratio: 0.991 ± 0.053

TATGAAAGTA
switch fluorescence ratio: 0.999 ± 0.033

TATGAACCGT
switch fluorescence ratio: 0.984 ± 0.052

TATGAAGTTG
switch fluorescence ratio: 0.985 ± 0.015

TATGAATGGG
switch fluorescence ratio: 1.01 ± 0.021

TATGAGCCTG
switch fluorescence ratio: 0.968 ± 0.047

TATGAGGTAA
switch fluorescence ratio: 1.02 ± 0.028

TATGAGGTTG
switch fluorescence ratio: 1 ± 0.03

TATGAGTAAG
switch fluorescence ratio: 0.978 ± 0.027

TATGATCACG
switch fluorescence ratio: 0.995 ± 0.011

TATGATCAGG
switch fluorescence ratio: 0.9933 ± 0.0025

TATGATGGGA
switch fluorescence ratio: 0.9911 ± 0.0093

TATGATTGGG
switch fluorescence ratio: 1.008 ± 0.0013

TATGCACGGA
switch fluorescence ratio: 1.07 ± 0.09

TATGCCAGCG
switch fluorescence ratio: 1.01 ± 0.025

TATGCGAGTC
switch fluorescence ratio: 0.952 ± 0.036

TATGCGTCGA
switch fluorescence ratio: 0.979 ± 0.013

TATGCGTTGG
switch fluorescence ratio: 1.007 ± 0.0024

TATGCTAGC
switch fluorescence ratio: 1.03 ± 0.091

TATGCTAGGG
switch fluorescence ratio: 0.977 ± 0.036

TATGCTAGTA
switch fluorescence ratio: 0.992 ± 0.025

TATGCTGAAT
switch fluorescence ratio: 1 ± 0.015

TATGGAATGT
switch fluorescence ratio: 0.998 ± 0.0062

TATGGAGGAG
switch fluorescence ratio: 0.981 ± 0.017

TATGGAGGGA
switch fluorescence ratio: 0.996 ± 0.021

TATGGAGTTT
switch fluorescence ratio: 1.01 ± 0.013

TATGGATTGT
switch fluorescence ratio: 1.01 ± 0.04

TATGGCCAAT
switch fluorescence ratio: 1.03 ± 0.03

TATGGCGCAT
switch fluorescence ratio: 0.993 ± 0.043

TATGGCTGTG
switch fluorescence ratio: 1.02 ± 0.06

TATGGGAAGC
switch fluorescence ratio: 1.03 ± 0.025

TATGGGCGTT
switch fluorescence ratio: 1 ± 0.011

TATGGGGATG
switch fluorescence ratio: 1 ± 0.024

TATGGGGGGA
switch fluorescence ratio: 1.02 ± 0.046

TATGGGGTCA
switch fluorescence ratio: 0.979 ± 0.018

TATGGTCAGT
switch fluorescence ratio: 0.968 ± 0.047

TATGGTTCGC
switch fluorescence ratio: 0.997 ± 0.055

TATGGTTTAA
switch fluorescence ratio: 0.975 ± 0.042

TATGGTTTGG
switch fluorescence ratio: 0.987 ± 0.028

TATGGTTTTC
switch fluorescence ratio: 1.01 ± 0.084

TATGTACGAT
switch fluorescence ratio: 1.05 ± 0.059

TATGTACTGT
switch fluorescence ratio: 1.09 ± 0.03

TATGTATTCT
switch fluorescence ratio: 1 ± 0.017

TATGTCAAG
switch fluorescence ratio: 1.02 ± 0.016

TATGTCAAGC
switch fluorescence ratio: 0.96 ± 0.038

TATGTCACAA
switch fluorescence ratio: 1.03 ± 0.014

TATGTCCGCT
switch fluorescence ratio: 1.05 ± 0.058

TATGTCTTAT
switch fluorescence ratio: 0.983 ± 0.027

TATGTGAGGA
switch fluorescence ratio: 0.989 ± 0.025

TATGTGATCT
switch fluorescence ratio: 0.9762 ± 0.0052

TATGTGGGCC
switch fluorescence ratio: 0.97 ± 0.041

TATGTTAAAG
switch fluorescence ratio: 0.996 ± 0.017

TATGTTAGGC
switch fluorescence ratio: 1.018 ± 0.01

TATGTTAGTT
switch fluorescence ratio: 1.01 ± 0.019

TATGTTTCGG
switch fluorescence ratio: 0.98 ± 0.011

TATTAAGTGC
switch fluorescence ratio: 0.955 ± 0.039

TATTAATGCT
switch fluorescence ratio: 1.028 ± 0.0052

TATTAATTCG
switch fluorescence ratio: 1.01 ± 0.032

TATTAGAATC
switch fluorescence ratio: 0.994 ± 0.026

TATTAGTGAA
switch fluorescence ratio: 1.01 ± 0.013

TATTAGTGCT
switch fluorescence ratio: 0.977 ± 0.033

TATTAGTTGC
switch fluorescence ratio: 1 ± 0.034

TATTATGAAT
switch fluorescence ratio: 0.999 ± 0.0024

TATTATGGAG
switch fluorescence ratio: 0.988 ± 0.021

TATTATTTCA
switch fluorescence ratio: 0.991 ± 0.024

TATTCACATT
switch fluorescence ratio: 0.994 ± 0.024

TATTCACGGG
switch fluorescence ratio: 1.0859 ± 0.00034

TATTCACTTG
switch fluorescence ratio: 1.04 ± 0.025

TATTCAGATA
switch fluorescence ratio: 0.9773 ± 0.008

TATTCAGCTA
switch fluorescence ratio: 1.07 ± 0.099

TATTCATTTG
switch fluorescence ratio: 1.027 ± 0.0068

TATTCCAATA
switch fluorescence ratio: 0.995 ± 0.03

TATTCGATTT
switch fluorescence ratio: 1.032 ± 0.0016

TATTCGGTTT
switch fluorescence ratio: 0.9889 ± 0.0048

TATTCGTTTT
switch fluorescence ratio: 0.989 ± 0.011

TATTCTAAAT
switch fluorescence ratio: 1.01 ± 0.016

TATTCTAGAG
switch fluorescence ratio: 0.989 ± 0.044

TATTGAGGGT
switch fluorescence ratio: 0.981 ± 0.034

TATTGCGGCC
switch fluorescence ratio: 1.02 ± 0.026

TATTGCTGCT
switch fluorescence ratio: 0.983 ± 0.032

TATTGGAGGG
switch fluorescence ratio: 0.974 ± 0.019

TATTGGCTTC
switch fluorescence ratio: 0.992 ± 0.018

TATTGGGAAA
switch fluorescence ratio: 1.06 ± 0.045

TATTGGGATA
switch fluorescence ratio: 1.01 ± 0.027

TATTGGGCAG
switch fluorescence ratio: 1.01 ± 0.023

TATTGGGCAT
switch fluorescence ratio: 0.985 ± 0.018

TATTGGGGA
switch fluorescence ratio: 0.958 ± 0.011

TATTGGGTAA
switch fluorescence ratio: 1.11 ± 0.14

TATTGGGTGA
switch fluorescence ratio: 0.99228 ± 0.00097

TATTGGGTGT
switch fluorescence ratio: 1.034 ± 0.0014

TATTGTACTC
switch fluorescence ratio: 1.03 ± 0.018

TATTGTAGGG
switch fluorescence ratio: 0.97 ± 0.013

TATTGTATGA
switch fluorescence ratio: 1.029 ± 0.0049

TATTGTCAGA
switch fluorescence ratio: 1.01 ± 0.019

TATTGTCCTT
switch fluorescence ratio: 1.019 ± 0.0056

TATTTAAGGT
switch fluorescence ratio: 1 ± 0.02

TATTTACGCT
switch fluorescence ratio: 1.05 ± 0.025

TATTTACTCG
switch fluorescence ratio: 1.05 ± 0.073

TATTTAGAAG
switch fluorescence ratio: 1.02 ± 0.054

TATTTAGGAG
switch fluorescence ratio: 0.999 ± 0.021

TATTTAGGCG
switch fluorescence ratio: 0.99 ± 0.064

TATTTAGGTA
switch fluorescence ratio: 1.022 ± 0.0031

TATTTAGGTG
switch fluorescence ratio: 1.11 ± 0.018

TATTTATAGT
switch fluorescence ratio: 1.02 ± 0.013

TATTTATCTT
switch fluorescence ratio: 0.989 ± 0.021

TATTTATGGG
switch fluorescence ratio: 0.978 ± 0.023

TATTTCTGAT
switch fluorescence ratio: 0.988 ± 0.016

TATTTCTTT
switch fluorescence ratio: 0.99 ± 0.026

TATTTGAGCT
switch fluorescence ratio: 1.03 ± 0.037

TATTTGGATA
switch fluorescence ratio: 1.05 ± 0.1

TATTTGGCTA
switch fluorescence ratio: 0.983 ± 0.045

TATTTGGGCG
switch fluorescence ratio: 1.053 ± 0.0059

TATTTGTACG
switch fluorescence ratio: 1.018 ± 0.0046

TATTTGTAGT
switch fluorescence ratio: 1.01 ± 0.039

TATTTGTCGG
switch fluorescence ratio: 1.0172 ± 0.00047

TATTTGTTAG
switch fluorescence ratio: 0.997 ± 0.031

TATTTTACTA
switch fluorescence ratio: 1.01 ± 0.032

TATTTTAGAG
switch fluorescence ratio: 0.966 ± 0.018

TATTTTAGGA
switch fluorescence ratio: 0.9743 ± 0.003

TATTTTGCGC
switch fluorescence ratio: 1.02 ± 0.026

TATTTTGGCG
switch fluorescence ratio: 0.986 ± 0.025

TATTTTTCGC
switch fluorescence ratio: 0.967 ± 0.015

TATTTTTCTC
switch fluorescence ratio: 0.983 ± 0.034

TATTTTTGGT
switch fluorescence ratio: 0.986 ± 0.021

TATTTTTTCG
switch fluorescence ratio: 0.987 ± 0.027

TATTTTTTGG
switch fluorescence ratio: 1.02 ± 0.033

TCAAAAAATT
switch fluorescence ratio: 1.02 ± 0.037

TCAAACCGCA
switch fluorescence ratio: 1.91 ± 0.16

TCAAACGAC
switch fluorescence ratio: 1.08 ± 0.011

TCAAAGGGCG
switch fluorescence ratio: 0.99 ± 0.049

TCAAAGGTAC
switch fluorescence ratio: 1.04 ± 0.0092

TCAAAGGTGT
switch fluorescence ratio: 1.22 ± 0.14

TCAAATAGGC
switch fluorescence ratio: 1.016 ± 0.01

TCAAATCGGT
switch fluorescence ratio: 1.03 ± 0.042

TCAACCCTTA
switch fluorescence ratio: 1.03 ± 0.038

TCAACGATAT
switch fluorescence ratio: 1.07 ± 0.075

TCAACTATTT
switch fluorescence ratio: 0.972 ± 0.031

TCAAGAGCTG
switch fluorescence ratio: 1.08 ± 0.072

TCAAGATGTG
switch fluorescence ratio: 0.99 ± 0.036

TCAAGATTGG
switch fluorescence ratio: 0.986 ± 0.023

TCAAGCGGGG
switch fluorescence ratio: 1.06 ± 0.09

TCAAGCTTTT
switch fluorescence ratio: 1.01 ± 0.017

TCAAGGGAAA
switch fluorescence ratio: 1 ± 0.058

TCAAGGGGAA
switch fluorescence ratio: 1 ± 0.019

TCAAGGTCCT
switch fluorescence ratio: 1.127 ± 0.0091

TCAATACGTT
switch fluorescence ratio: 1.09 ± 0.016

TCAATCATAT
switch fluorescence ratio: 0.982 ± 0.033

TCAATCGCTT
switch fluorescence ratio: 1.09 ± 0.026

TCAATCGGAA
switch fluorescence ratio: 1.06 ± 0.014

TCAATCTGTG
switch fluorescence ratio: 1.01 ± 0.066

TCAATGAATA
switch fluorescence ratio: 0.986 ± 0.02

TCAATGGTAT
switch fluorescence ratio: 1.17 ± 0.28

TCAATGGTGG
switch fluorescence ratio: 1.01 ± 0.028

TCAATGTGGT
switch fluorescence ratio: 1.016 ± 0.008

TCAATGTTTT
switch fluorescence ratio: 0.9846 ± 0.0031

TCAATTAGGC
switch fluorescence ratio: 1.05 ± 0.027

TCACACGGCG
switch fluorescence ratio: 1.13 ± 0.18

TCACACGTCG
switch fluorescence ratio: 1.02 ± 0.013

TCACAGATGG
switch fluorescence ratio: 1.02 ± 0.036

TCACAGTCTA
switch fluorescence ratio: 1.04 ± 0.058

TCACCAGGGG
switch fluorescence ratio: 1.76 ± 0.72

TCACCGAGGC
switch fluorescence ratio: 1.15 ± 0.07

TCACCTTGTT
switch fluorescence ratio: 1.03 ± 0.037

TCACGAGGCT
switch fluorescence ratio: 1.038 ± 0.0097

TCACGATTGG
switch fluorescence ratio: 1.02 ± 0.02
